Results from patent US20160137713A1.

Columns and labels:
[1] = biological target: human FcRn on HEK293 cells (human) (UniProt P55899); assay: FACS competition on hFcRn HEK293 cells at pH 6.0; remaining binding of 100 nM Alexa488-labeled hIgG1 (m14) with 500 nM unlabeled competitor, percent of the tube without competitor
[2] = biological target: human FcRn on HEK293 cells (human) (UniProt P55899); assay: FACS competition on hFcRn HEK293 cells at pH 6.0; remaining binding of 100 nM Alexa488-labeled hIgG1 (m14) with 250 nM unlabeled competitor, percent of the tube without competitor
[3] = biological target: human FcRn on HEK293 cells (human) (UniProt P55899); assay: FACS competition on hFcRn HEK293 cells at pH 6.0; remaining binding of 100 nM Alexa488-labeled hIgG1 (m14) with 1000 nM unlabeled competitor, percent of the tube without competitor
[4] = biological target: human FcRn on HEK293 cells (human) (UniProt P55899); assay: FACS on hFcRn-overexpressing HEK293 cells at pH 7.4, Alexa488 anti-human goat antibody; hIgG1 is the reference of the ratio
[5] = biological target: human FcRn on HEK293 cells (human) (UniProt P55899); assay: FACS on hFcRn-overexpressing HEK293 cells at pH 6.0, Alexa488 anti-human goat antibody; hIgG1 is the reference of the ratio

A Relative MFI(%) at 500nM [1] of 69.9%, a Relative MFI(%) at 250nM [2] of 87.4% and a Relative MFI(%) at 1000nM [3] of 69.1% were found for human IgG1 (antibody) in this work. For the same substance, the Relative MFI (Fold) [4] was 1 fold and the Relative MFI (Fold) [5] was 1 fold.
